Source: patent US20230052369A1 (Zymeworks, published 2023)

Target: T1, full-length human FRα, on 293E cells (human, UniProt P15328 25-234)
T1 construct: also called folate receptor alpha; FOLR1
Experiment: flow cytometry, 293E cells expressing FRα
Experimental: Antibodies were diluted in 50 μl FB (PBS 2% FCS) 1:3 from stock in wells of a 96 V-well plate, and cells added on top. The cells were then left on ice for 30 minutes for the antibodies to bind. The cells were then washed twice in FB, and incubated in 50 μl FB containing 2 μg/ml goat anti-human Alexa647 antibody (Jackson Immunoresearch). The cells were then left on ice for a further 20 minutes, washed twice in FB, resuspended in 100 μl FB and analyzed on a BD Fortessa™ X20. The subsequent data files were analyzed using FlowJo™ and Prism 7 (GraphPad).

T1 sequence (P15328 25-234 limits assumed): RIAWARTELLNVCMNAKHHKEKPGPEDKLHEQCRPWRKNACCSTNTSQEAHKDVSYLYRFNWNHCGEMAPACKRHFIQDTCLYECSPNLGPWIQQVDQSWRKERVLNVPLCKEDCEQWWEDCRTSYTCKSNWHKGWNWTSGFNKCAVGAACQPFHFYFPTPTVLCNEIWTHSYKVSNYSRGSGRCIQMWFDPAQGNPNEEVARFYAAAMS

binding result: binds
B1: v23651 (bispecific antibody, human IgG1, kappa, L234A L235A)
heavy 1: QVQLKESGPGLVAPSQSLSITCTVSGFSLTTYAISWVRQPPGKGLEWLGIIWPGGGTNYNSALKSRLSISKDNSRSQVFLKMNSLQTDDTARYYCARGAGTWYFDVWGAGTTVTVSSASTKGPSVFPLAPSSKSTSGGTAALGCLVKDYFPEPVTVSWNSGALTSGVHTFPAVLQSSGLYSLSSVVTVPSSSLGTQTYICNVNHKPSNTKVDKKVEPKSCDKTHTCPPCPAPEAAGGPSVFLFPPKPKDTLMISRTPEVTCVVVSVSHEDPEVKFNWYVDGVEVHNAKTKPREEQYNSTYRVVSVLTVLHQDWLNGKEYKCKVSNKALPAPIEKTISKAKGQPREPQVYVYPPSRDELTKNQVSLTCLVKGFYPSDIAVEWESNGQPENNYKTTPPVLDSDGSFALVSKLTVDKSRWQQGNVFSCSVMHEALHNHYTQKSLSLSPGGGGGQVQLVQSGAEVVKPGASVKISCKASGYTFTGYFMNWVKQSPGQSLEWIGRIHPYDGDTFYNQKFQGKATLTVDKSSNTAHMELLSLTSEDFAVYYCTRYDGSRAMDYWGQGTTVTVSSGGGGSGGGGSGGGGSDIVLTQSPLSLAVSLGQPAIISCKASQSVSFAGTSLMHWYHQKPGQQPRLLIYRASNLEAGVPDRFSGSGSKTDFTLTISPVEAEDAATYYCQQSREYPYTFGGGTKLEIK
heavy 2: QVQLKESGPGLVAPSQSLSITCTVSGFSLTTYAISWVRQPPGKGLEWLGIIWPGGGTNYNSALKSRLSISKDNSRSQVFLKMNSLQTDDTARYYCARGAGTWYFDVWGAGTTVTVSSASTKGPSVFPLAPSSKSTSGGTAALGCLVKDYFPEPVTVSWNSGALTSGVHTFPAVLQSSGLYSLSSVVTVPSSSLGTQTYICNVNHKPSNTKVDKKVEPKSCDKTHTCPPCPAPEAAGGPSVFLFPPKPKDTLMISRTPEVTCVVVSVSHEDPEVKFNWYVDGVEVHNAKTKPREEQYNSTYRVVSVLTVLHQDWLNGKEYKCKVSNKALPAPIEKTISKAKGQPREPQVYVLPPSRDELTKNQVSLLCLVKGFYPSDIAVEWESNGQPENNYLTWPPVLDSDGSFFLYSKLTVDKSRWQQGNVFSCSVMHEALHNHYTQKSLSLSPG
light: DIQMTQSTSSLSASVGDRVTISCSASQGISNYLNWYQQKPDGTVKLLIYYTSSLHSGVPSRFSGSGSGTDYSLTISNLEPEDIATYYCQQYSKFPWTFGGGTKLEIKRTVAAPSVFIFPPSDEQLKSGTASVVCLLNNFYPREAKVQWKVDNALQSGNSQESVTEQDSKDSTYSLSSTLTLSKADYEKHKVYACEVTHQGLSSPVTKSFNRGEC
notes: also called 1C8 x Mirvetuximab (scFv) 2x1
